Data: US20120093805A1

Assays:
[1] = biological target: human CD27 with normal O-linked sugar chains expressed on CHO/DG44 cells (human) (UniProt P26842); assay: flow cytometry (FCM) on CD27/DG44-4 cells [B) (b]
[2] = biological target: cynomolgus CD27 (C-terminal His tag) with normal O-linked sugar chains expressed on CHO/DG44 cells (cynomolgus); assay: flow cytometry (FCM) on cynomolgus CD27/DG44 cells; number printed beside the broken bar
[3] = biological target: human sugar chain-deficient CD27 expressed on Lec8 cells (human) (UniProt P26842); assay: flow cytometry (FCM) on CD27/Lec8-4 cells [A) (b]
Sequence of human sugar chain-deficient CD27 expressed on Lec8 cells (human) (P26842 20-260 H233R limits assumed): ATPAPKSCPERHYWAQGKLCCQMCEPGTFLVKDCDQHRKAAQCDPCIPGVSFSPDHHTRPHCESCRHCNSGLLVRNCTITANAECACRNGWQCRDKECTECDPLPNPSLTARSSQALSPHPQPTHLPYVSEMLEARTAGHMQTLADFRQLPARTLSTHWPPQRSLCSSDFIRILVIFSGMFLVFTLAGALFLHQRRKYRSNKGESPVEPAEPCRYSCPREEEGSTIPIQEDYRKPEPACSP

Sequence of human CD27 with normal O-linked sugar chains expressed on CHO/DG44 cells (human) (P26842 20-260 H233R limits assumed): as above

Anti-CD27 Antibody (O323)
EC50 (read off the curve) [1]: 0.1 µg/mL | Mean Fluorescence Intensity [2]: 133 | EC50 (read off the curve) [3]: 0.1 µg/mL
